Legend:
HeLa Kyoto [1] = assay: solubility change mitosis vs G1/S (difference of NP-40 vs SDS log2 ratios) (log2 ratio difference); higher = more soluble in mitosis
HeLa Kyoto [2] = assay: melting temperature (median over replicates), in situ; higher = more thermally stable
HeLa Kyoto [3] = assay: thermal stability score vs G1/S (z-score of summed log2 fold changes over temperatures); higher = more thermally stable than in G1/S
HeLa Kyoto [4] = assay: solubility in G1/S (NP-40 vs SDS abundance) (log2 ratio); higher = more soluble; settings: cell cycle stage: G1/S
[5] = cell cycle stage: early G1 (4.5 h after nocodazole release)
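For melting temperature (median over replicates), in situ in this document: HeLa Kyoto cells synchronized by double thymidine or nocodazole block, proteins quantified by TMT10plex mass spectrometry, three independent biological replicates.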
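For solubility change mitosis vs G1/S (difference of NP-40 vs SDS log2 ratios) in this document: synchronized HeLa Kyoto cells (double thymidine block for G1/S, nocodazole release for mitosis), protein amounts in NP-40 versus SDS lysates quantified by mass spectrometry, three biological replicates.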
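For solubility in G1/S (NP-40 vs SDS abundance) in this document: HeLa Kyoto cells arrested at G1/S by double thymidine block, proteins quantified by TMT10plex mass spectrometry in mild NP-40 versus SDS extracts, three biological replicates.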
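For thermal stability score vs G1/S (z-score of summed log2 fold changes over temperatures) in this document: synchronized HeLa Kyoto cells, proteins quantified by TMT10plex mass spectrometry, three biological replicates, mitosis taken 0.5 h after nocodazole release, G1/S directly after double thymidine block.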

For “MSEVKSRKKSGPKGAPAAEPGKRSEGGKTPVARSSGGGGWADPRTCLSLLSLGTCLGLAWFVFQQSEKFAKVENQYQLLKLETNEFQQLQSKISLISEKWQKSEAIMEQLKSFQIIAHLKRLQEEINEVKTWSNRITEKQDILNNSLTTLSQDITKVDQSTTSMAKDVGLKITSVKTDIRRISGLVTDVISLTDSVQELENKIEKVEKNTVKNIGDLLSSSIDRTATLRKTASENSQRINSVKKTLTELKSDFDKHTDRFLSLEGDRAKVLKTVTFANDLKPKVYNLKKDFSRLEPLVNDLTLRIGRLVTDLLQREKEIAFLSEKISNLTIVQAEIKDIKDEIAHISDMN [IKBIP]”, the “solubility change mitosis (log2)” value (HeLa Kyoto [1]) was 0.165, the melting temperature (HeLa Kyoto [2]; cell cycle stage: G1/S) was 54.1 °C and the melting temperature (HeLa Kyoto [2]; cell cycle stage: mitosis) was 55.2 °C. For the same sequence, the thermal stability score (HeLa Kyoto [3]; [5]) was 2.64, the thermal stability score (HeLa Kyoto [3]; cell cycle stage: mitosis) was 4.37 and the “solubility in G1/S (log2)” value (HeLa Kyoto [4]) was 0.751.

In the case of “MSEWMKKGPLEWQDYIYKEVRVTASEKNEYKGWVLTTDPVSANIVLVNFLEDGSMSVTGIMGHAVQTVETMNEGDHRVREKLMHLFTSGDCKAYSPEDLEERKNSLKKWLEKNHIPITEQGDAPRTLCVAGVLTIDPPYGPENCSSSNEIILSRVQDLIEGHLTASQ [GEMIN6]”, the “solubility change mitosis (log2)” value (HeLa Kyoto [1]) is reported as 0.0835, the melting temperature (HeLa Kyoto [2]; cell cycle stage: G1/S) is reported as 53.6 °C and the melting temperature (HeLa Kyoto [2]; cell cycle stage: mitosis) is reported as 52.3 °C. The thermal stability score (HeLa Kyoto [3]; [5]) was -0.4, the thermal stability score (HeLa Kyoto [3]; cell cycle stage: mitosis) was -2.06 and the “solubility in G1/S (log2)” value (HeLa Kyoto [4]) was 0.271.

In the case of “MSFIPVAEDSDFPIHNLPYGVFSTRGDPRPRIGVAIGDQILDLSIIKHLFTGPVLSKHQDVFNQPTLNSFMGLGQAAWKEARVFLQNLLSVSQARLRDDTELRKCAFISQASATMHLPATIGDYTDFYSSRQHATNVGIMFRDKENALMPNWLHLPVGYHGRASSVVVSGTPIRRPMGQMKPDDSKPPVYGACKLLDMELEMAFFVGPGNRLGEPIPISKAHEHIFGMVLMNDWSARDIQKWEYVPLGPFLGKSFGTTVSPWVVPMDALMPFAVPNPKQDPRPLPYLCHDEPYTFDINLSVNLKGEGMSQAATICKSNFKYMYWTMLQQLTHHSVNGCNLRPGDLLASGTISGPEPENFGSMLELSWKGTKPIDLGNGQTRKFLLDGDEVIITGYCQGDGYRIGFGQCAGKVLPALLPS [FAH]”, the “solubility change mitosis (log2)” value (HeLa Kyoto [1]) is reported as -0.0884, the melting temperature (HeLa Kyoto [2]; cell cycle stage: G1/S) is reported as 58.7 °C and the melting temperature (HeLa Kyoto [2]; cell cycle stage: mitosis) is reported as 59 °C. For the same sequence, the thermal stability score (HeLa Kyoto [3]; [5]) was -0.791, the thermal stability score (HeLa Kyoto [3]; cell cycle stage: mitosis) was -0.764 and the “solubility in G1/S (log2)” value (HeLa Kyoto [4]) was 0.207.

With “MSFVAGVIRRLDETVVNRIAAGEVIQRPANAIKEMIENCLDAKSTSIQVIVKEGGLKLIQIQDNGTGIRKEDLDIVCERFTTSKLQSFEDLASISTYGFRGEALASISHVAHVTITTKTADGKCAYRASYSDGKLKAPPKPCAGNQGTQITVEDLFYNIATRRKALKNPSEEYGKILEVVGRYSVHNAGISFSVKKQGETVADVRTLPNASTVDNIRSIFGNAVSRELIEIGCEDKTLAFKMNGYISNANYSVKKCIFLLFINHRLVESTSLRKAIETVYAAYLPKNTHPFLYLSLEISPQNVDVNVHPTKHEVHFLHEESILERVQQHIESKLLGSNSSRMYFTQTLLPGLAGPSGEMVKSTTSLTSSSTSGSSDKVYAHQMVRTDSREQKLDAFLQPLSKPLSSQPQAIVTEDKTDISSGRARQQDEEMLELPAPAEVAAKNQSLEGDTTKGTSEMSEKRGPTSSNPRKRHREDSDVEMVEDDSRKEMTAACTPRRRIINLTSVLSLQEEINEQGHEVLREMLHNHSFVGCVNPQWALAQHQTKLYLLNTTKLSEELFYQILIYDFANFGVLRLSEPAPLFDLAMLALDSPESGWTEEDGPKEGLAEYIVEFLKKKAEMLADYFSLEIDEEGNLIGLPLLIDNYVPPLEGLPIFILRLATEVNWDEEKECFESLSKECAMFYSIRKQYISEESTLSGQQSEVPGSIPNSWKWTVEHIVYKALRSHILPPKHFTEDGNILQLANLPDLYKVFERC [MLH1]” the “solubility change mitosis (log2)” value (HeLa Kyoto [1]) was -0.21, the melting temperature (HeLa Kyoto [2]; cell cycle stage: G1/S) was 46.3 °C and the melting temperature (HeLa Kyoto [2]; cell cycle stage: mitosis) was 48.8 °C. The thermal stability score (HeLa Kyoto [3]; [5]) was 3.37, the thermal stability score (HeLa Kyoto [3]; cell cycle stage: mitosis) was 5.51 and the “solubility in G1/S (log2)” value (HeLa Kyoto [4]) was -0.0862.

For “MSGCGLFLRTTAAARACRGLVVSTANRRLLRTSPPVRAFAKELFLGKIKKKEVFPFPEVSQDELNEINQFLGPVEKFFTEEVDSRKIDQEGKIPDETLEKLKSLGLFGLQVPEEYGGLGFSNTMYSRLGEIISMDGSITVTLAAHQAIGLKGIILAGTEEQKAKYLPKLASGEHIAAFCLTEPASGSDAASIRSRATLSEDKKHYILNGSKVWITNGGLANIFTVFAKTEVVDSDGSVKDKITAFIVERDFGGVTNGKPEDKLGIRGSNTCEVHFENTKIPVENILGEVGDGFKVAMNILNSGRFSMGSVVAGLLKRLIEMTAEYACTRKQFNKRLSEFGLIQEKFALMAQKAYVMESMTYLTAGMLDQPGFPDCSIEAAMVKVFSSEAAWQCVSEALQILGGLGYTRDYPYERILRDTRILLIFEGTNEILRMYIALTGLQHAGRILTTRIHELKQAKVSTVMDTVGRRLRDSLGRTVDLGLTGNHGVVHPSLADSANKFEENTYCFGRTVETLLLRFGKTIMEEQLVLKRVANILINLYGMTAVLSRASRSIRIGLRNHDHEVLLANTFCVEAYLQNLFSLSQLDKYAPENLDEQIKKVSQQILEKRAYICAHPLDRTC [ACAD9]”, the “solubility change mitosis (log2)” value (HeLa Kyoto [1]) was -0.164, the melting temperature (HeLa Kyoto [2]; cell cycle stage: G1/S) was 54.6 °C and the melting temperature (HeLa Kyoto [2]; cell cycle stage: mitosis) was 54.7 °C. For the same sequence, the thermal stability score (HeLa Kyoto [3]; [5]) was 4.01, the thermal stability score (HeLa Kyoto [3]; cell cycle stage: mitosis) was 3.04 and the “solubility in G1/S (log2)” value (HeLa Kyoto [4]) was -0.06.

In the case of “MSGDHLHNDSQIEADFRLNDSHKHKDKHKDREHRHKEHKKEKDREKSKHSNSEHKDSEKKHKEKEKTKHKDGSSEKHKDKHKDRDKEKRKEEKVRASGDAKIKKEKENGFSSPPQIKDEPEDDGYFVPPKEDIKPLKRPRDEDDADYKPKKIKTEDTKKEKKRKLEEEEDGKLKKPKNKDKDKKVPEPDNKKKKPKKEEEQKWKWWEEERYPEGIKWKFLEHKGPVFAPPYEPLPENVKFYYDGKVMKLSPKAEEVATFFAKMLDHEYTTKEIFRKNFFKDWRKEMTNEEKNIITNLSKCDFTQMSQYFKAQTEARKQMSKEEKLKIKEENEKLLKEYGFCIMDNHKERIANFKIEPPGLFRGRGNHPKMGMLKRRIMPEDIIINCSKDAKVPSPPPGHKWKEVRHDNKVTWLVSWTENIQGSIKYIMLNPSSRIKGEKDWQKYETARRLKKCVDKIRNQYREDWKSKEMKVRQRAVALYFIDKLALRAGNEKEEGETADTVGCCSLRVEHINLHPELDGQEYVVEFDFLGKDSIRYYNKVPVEKRVFKNLQLFMENKQPEDDLFDRLNTGILNKHLQDLMEGLTAKVFRTYNASITLQQQLKELTAPDENIPAKILSYNRANRAVAILCNHQRAPPKTFEKSMMNLQTKIDAKKEQLADARRDLKSAKADAKVMKDAKTKKVVESKKKAVQRLEEQLMKLEVQATDREENKQIALGTSKLNYLDPRITVAWCKKWGVPIEKIYNKTQREKFAWAIDMADEDYEF [TOP1]”, the “solubility change mitosis (log2)” value (HeLa Kyoto [1]) is reported as 0.531, the melting temperature (HeLa Kyoto [2]; cell cycle stage: G1/S) is reported as 46.9 °C and the melting temperature (HeLa Kyoto [2]; cell cycle stage: mitosis) is reported as 49.1 °C. The thermal stability score (HeLa Kyoto [3]; [5]) was 7.82, the thermal stability score (HeLa Kyoto [3]; cell cycle stage: mitosis) was 12 and the “solubility in G1/S (log2)” value (HeLa Kyoto [4]) was -1.22.

— the supplement of paper PMC5998384
